Data from article doi:10.1101/2021.02.22.432209 (bioRxiv, 2021).
Where two headings read alike, the source gives them in different places.

B1: GABARAP (1-117), His8-TEV-GABARAP (natural protein)
chain: MKFVYKEEHPFEKRRSEGEKIRKKYPDRVPVIVEKAPKARIGDLDKKKYLVPSDLTVGQFYFLIRKRIHLRAEDALFFFVNNVIPPTSATMGQLYQEHHEEDFFLYIAYSDESVYGL
B2: GST-PreScission-p62 FIR 4P (domain or fragment)
chain: MESDNCSGGDDDWTHLSSKEVDPETGELQSLQMPESEGPEELDPEQEGPTGLKEA

Assays:
Test in all cases: SPR
[1] = target: B1
[2] = target: T1, Biotinylated FLCN-8xGlycine-AviTag/FNIP2 (human, UniProt Q8NFG4;Q9P278, biotin on the AviTag)
[3] = target: T1, Biotinylated FLCN-8xGlycine-AviTag/FNIP2; remark: listed apart in the source
[4] = target: B1; remark: listed apart in the source
[5] = target: LC3B (1-125), His8-TEV-LC3B (human, UniProt Q9GZQ8 1-120)

EKGEVEESEYVVITVRNEP [FNIP2 peptide 558-576, wild type (Short)]
Kd [1]: 6200 ± 3000 nM

B1
Kd [2]: 0.071 ± 0.01 nM
Kd [3]: 0.3 ± 0.018 nM

GSKIITALEKGEVEESEYVVITVRNEP [FNIP2 peptide 550-576, wild type (Long)]
Kd [1]: 29 ± 2 nM

B2
Kd [4]: 670 ± 80 nM
Kd [5]: 820 ± 40 nM
